Measurements published in the supplement of paper PMC7877785.
± gives the uncertainty stated by the source.

Assay: self-splicing fitness, log relative to wild type (ln ratio); higher = more splicing; Tetrahymena group I intron in knt gene, E. coli kanamycin selection, DiMSum; sequences stand for … in CUCUCU…GGAGGGAAAAGUUAUCAGGCAUGCACCUGGUAGCUAGUCUUUAAACCAAUAGAUUGCAUCGGUUUAAAAGGCAAGACCGUCAAAUUGCGGGAAAGGGGUCAACAGCCGUUCAGUACCAAGUCUCAGGGGAAACUUUGAGAUGGCCUUGCAAAGGGUAUGGUAAUAAGCUGACGGACAUGGUCCUAACCACGCAGCCAAGUCCUAAGUCAACAGAUCUUCUGUUGAUAUGGAUGCAGUUCACAGACUAAAUGUCGGUCGGGGAAGAUGUAUUCUUCUCAUAAGAUAUAGUCGGACCUCUCCUUAAUGGGAGCUAGCGGAUGAAGUGAUGCAACACUGGAGCCGCUGGGAACUAAUUUGUAUGCGAAAGUAUAUUGAUUAGUUUUGGAGUACUCGUGGUCG
Procedure, shortened: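 Fitness was computed with DiMSum as the error-weighted combination of replicate fold changes, kanamycin versus none, each normalised to wild type. The library randomised all eight intron nucleotides of the P1ex region, with the intron placed in the knt kanamycin-resistance gene on pET-22b(+) in E. coli BL21(DE3). Six replicate transformations were grown overnight at 37°C or 30°C on LB agar with or without 25 μg/mL kanamycin, plus 100 μg/mL carbenicillin, 50 μM IPTG and 0.2% rhamnose. Pooled colonies were amplicon-sequenced on an Illumina HiSeq 2500.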

| Sequence | self-splicing fitness (ln) (30 °C) | self-splicing fitness (ln) (37 °C) |
| --- | --- | --- |
| GAUCAGCAAUAUUACGUGCA | -0.293 ± 0.072 | -0.489 ± 0.085 |
| GAUCAGCAAUAUUACGUGGC | -2.95 ± 0.21 | -0.582 ± 0.15 |
| GAUCAGCAAUAUUACGUUCC | – | -2.85 ± 0.4 |
| GAUCAGCAAUAUUACGUUCU | -2.42 ± 0.1 | -1.46 ± 0.12 |
| GAUGAGCAAUAUUACGAGGG | – | -2.15 ± 0.22 |
| GAUGAGCAAUAUUACGAUCA | -2.17 ± 0.24 | -1.31 ± 0.21 |
| GAUGAGCAAUAUUACGAUCG | -1.9 ± 0.35 | -2.32 ± 0.24 |
| GAUGAGCAAUAUUACGAUUA | -2.57 ± 0.21 | -1.4 ± 0.18 |
| GAUGAGCAAUAUUACGCAAU | -4.35 ± 0.34 | -2.46 ± 0.19 |
| GAUGAGCAAUAUUACGCACU | -2.71 ± 0.22 | -1.04 ± 0.2 |
| GAUGAGCAAUAUUACGCAGG | – | -2.24 ± 0.43 |
| GAUGAGCAAUAUUACGCCCG | -3 ± 0.36 | -2.08 ± 0.43 |
| GAUGAGCAAUAUUACGCCUA | -1.7 ± 0.29 | -0.51 ± 0.26 |
| GAUGAGCAAUAUUACGCCUG | -1.57 ± 0.26 | -2.53 ± 0.41 |
| GAUGAGCAAUAUUACGCGUG | -0.71 ± 0.14 | -1.14 ± 0.16 |
| GAUGAGCAAUAUUACGCUGU | -3.68 ± 0.26 | -2.35 ± 0.26 |
| GAUGAGCAAUAUUACGGAUG | -2.78 ± 0.19 | -2.89 ± 0.26 |
| GAUGAGCAAUAUUACGGCAA | -0.812 ± 0.26 | -2.35 ± 0.37 |
| GAUGAGCAAUAUUACGGCAC | -0.478 ± 0.098 | -0.366 ± 0.16 |
| GAUGAGCAAUAUUACGGGCA | -1.87 ± 0.2 | -1.88 ± 0.28 |
| GAUGAGCAAUAUUACGGGUG | -2.68 ± 0.2 | -3.32 ± 0.28 |
| GAUGAGCAAUAUUACGGUCC | -3.29 ± 0.2 | -2.27 ± 0.36 |

| Sequence | self-splicing fitness (ln) (30 °C) | self-splicing fitness (ln) (37 °C) |
| --- | --- | --- |
| GAUGAGCAAUAUUACGUAAG | -3.37 ± 0.24 | -2.11 ± 0.2 |
| GAUGAGCAAUAUUACGUAGA | -3.51 ± 0.24 | -1.88 ± 0.2 |
| GAUGAGCAAUAUUACGUCGC | -4.14 ± 0.29 | -2.7 ± 0.26 |
| GAUGAGCAAUAUUACGUGGC | -3.24 ± 0.22 | -2.59 ± 0.26 |
| GAUGAGCAAUAUUACGUUAG | -3.42 ± 0.24 | -1.81 ± 0.23 |
| GAUGAGCAAUAUUACGUUAU | -3.98 ± 0.23 | -1.77 ± 0.16 |
| GAUGAGCAAUAUUACGUUGG | -3.65 ± 0.3 | -2.2 ± 0.32 |
| GAUGAGCAAUAUUACGUUUA | -3.13 ± 0.29 | -2.75 ± 0.23 |
| GAUGAGCAAUAUUACGUUUG | -3.24 ± 0.21 | -2.77 ± 0.26 |
| GAUUAGCAAUAUUACGACGA | -1.23 ± 0.3 | -0.273 ± 0.2 |
| GAUUAGCAAUAUUACGAGAU | -3.12 ± 0.14 | -3.26 ± 0.19 |
| GAUUAGCAAUAUUACGCAUA | -2.08 ± 0.17 | -0.967 ± 0.14 |
| GAUUAGCAAUAUUACGCCGA | -1.03 ± 0.42 | – |
| GAUUAGCAAUAUUACGGAAA | -2.25 ± 0.29 | -2.19 ± 0.22 |
| GAUUAGCAAUAUUACGGCCA | -1.41 ± 0.19 | 0.41 ± 0.21 |
| GAUUAGCAAUAUUACGGGUA | -1.98 ± 0.13 | -1.04 ± 0.12 |
| GAUUAGCAAUAUUACGUAGA | -1.92 ± 0.15 | -0.933 ± 0.14 |
| GCAAAGCAAUAUUACGAAGC | -1.83 ± 0.25 | -2.28 ± 0.34 |
| GCAAAGCAAUAUUACGACAG | -3.2 ± 0.18 | -2.68 ± 0.23 |
| GCAAAGCAAUAUUACGAGAC | – | -2.63 ± 0.43 |
| GCAAAGCAAUAUUACGAUCG | -1.52 ± 0.067 | -0.0765 ± 0.091 |
